Experiments:
[1] = biological target: Human CD33-V-HSA (human); experiment: SPRi off-rate screen (IBIS MX96)
[2] = biological target: Human CD33 ECD-HSA (human); experiment: SPRi off-rate screen (IBIS MX96)
[3] = biological target: human CD3 on human T cells (human) (UniProt P07766); experiment: flow cytometry competition on purified human T cells; competitor 2 ug/mL AF488-labelled SP34-2
[4] = biological target: human CD3 on human T cells (human) (UniProt P07766); experiment: saturation binding on human pan T cells, flow cytometry (KdT)

Chain of human CD3 on human T cells (human) (P07766 23-207 limits assumed): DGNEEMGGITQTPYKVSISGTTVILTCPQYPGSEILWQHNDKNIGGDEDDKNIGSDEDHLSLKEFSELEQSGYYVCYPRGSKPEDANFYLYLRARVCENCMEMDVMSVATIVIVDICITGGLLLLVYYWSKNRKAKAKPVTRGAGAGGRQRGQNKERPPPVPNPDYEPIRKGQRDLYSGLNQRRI

koff [1] | koff [2] | IC50 (read off the curve) [3] | Kd [4] | Substance
0.0378 s⁻¹ | 0.00237 s⁻¹ |  |  | WM53 (antibody)
 |  | 1 µg/mL | 5.6 nM | SP34-2, commercial mouse anti-human CD3 antibody

— US20230322924A1
